Experimental data published in US20260232831A1 (FRONTAIM BIOMEDICINES, published 2026).
Changes are numbered by the printed parent chain.

Tests used:
[1] = molecular target: T1, human Trop2 on the cell surface (A-431, ME-180, MDA-MB-468 cells) (human, UniProt P09758 27-323); assay: flow cytometry on ME-180 cells, AF488 goat anti-human IgG Fc detection
T1 construct: whole, on cells; Endogenous Trop2 on Trop2-positive tumour cell lines used in flow cytometry and cytotoxicity assays; also called TACSTD2; tumor-associated calcium signal transducer 2
T1 sequence (looked up): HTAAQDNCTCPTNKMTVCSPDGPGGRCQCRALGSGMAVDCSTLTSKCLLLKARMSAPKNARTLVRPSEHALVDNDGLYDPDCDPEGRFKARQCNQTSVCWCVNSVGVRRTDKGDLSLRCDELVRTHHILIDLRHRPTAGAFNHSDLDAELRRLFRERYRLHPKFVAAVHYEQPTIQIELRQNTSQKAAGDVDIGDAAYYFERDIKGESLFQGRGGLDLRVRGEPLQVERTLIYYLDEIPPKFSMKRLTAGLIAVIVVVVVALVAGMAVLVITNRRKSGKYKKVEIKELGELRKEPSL
Method: For CD3 binding, Jurkat cells were dispensed into a 96-well plate at 2×10⁵/well, and incubated with indicated agents at 4° C. for 45 min. After wash with PBS, cells were incubated with AF488 labeled goat anti-human IgG Fe. For Trop2 binding, ME-180 cells were dissociated from culture, dispensed into a 96-well plate at 2×10⁵/well, and incubated with indicated agents at 4° C. for 45 min. After wash with PBS, cells were incubated with AF488 labeled goat anti-human IgG Fc. Binding was analyzed by low cytometry using Attune N×T Flow Cytometer.
After wash with PBS, cells were incubated with a AF488 labeled goat anti-human IgG Fc secondary antibody at 4° C. for another 45 min. After two wash steps, binding was analyzed by flow cytometry using Attune N×T Flow Cytometer.

[2] = molecular target: T1, human Trop2 on the cell surface (A-431, …); assay: flow cytometry on A-431 cells, AF488 goat anti-human IgG Fc detection
Method: All incubations were 45 min at 4° C. plus washes with 1% BSA in PBS between incubations. Binding signal was measured by Attune™ N×T Acoustic Focusing Cytometer (ThermoFisher Scientific).

[3] = molecular target: T2, human CD3 on Jurkat cell surface (human, UniProt P07766 23-207); assay: flow cytometry on Jurkat cells, AF488 goat anti-human IgG Fc detection
T2 construct: whole, on cells; also called cell surface CD3 of Jurkat
T2 sequence (P07766 23-207): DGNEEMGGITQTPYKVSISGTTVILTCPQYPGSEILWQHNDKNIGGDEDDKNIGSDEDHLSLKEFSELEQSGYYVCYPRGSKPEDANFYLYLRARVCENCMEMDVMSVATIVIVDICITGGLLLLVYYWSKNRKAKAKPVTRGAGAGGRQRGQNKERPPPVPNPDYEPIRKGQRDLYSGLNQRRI
Method: For CD3 binding, Jurkat cells were dispensed into a 96-well plate at 2×10⁵/well, and incubated with indicated agents at 4° C. for 45 min. After wash with PBS, cells were incubated with AF488 labeled goat anti-human IgG Fc. […] After wash with PBS, cells were incubated with AF488 labeled goat anti-human IgG Fe.
After wash with PBS, cells were incubated with a AF488 labeled goat anti-human IgG Fc secondary antibody at 4° C. for another 45 min.

[4] = molecular target: T1, human Trop2 on the cell surface (A-431, …); assay: cell-based or functional assay

B1: humanized anti-Trop2 antibody hL0125 (antibody, V domains shown)
VL: DIQLTQSPAIMSASPGERVTMTCRASSSVSSSYLHWYQQRSGQSPKLLIYSTSNLASGVPARFSGSGSGTDYSLTISSLEAEDAATYYCQQYSGSPLTFGSGTKLEIKR
VH: QVQLQESGGGLVKPGGSLKLSCAASGFTFSSYAMSWVRQTPDKRLEWVAEISSDGFYTYYPDTVTGRFTISRDNAKNTLYLQMSSLRSEDTAMYYCARDGNYVDYAMDYWGQGTSVTVSS
notes: Variable regions were cloned into human IgG expression vectors to give a full-size humanized IgG; also called modular antibody hL0125
EC50 (read off the curve) [1]: ~6 nM
EC50 (read off the curve) [2]: ~10 nM
binding result [3]: no binding (tested: 20.0 nM)

B2: chimeric anti-Trop2 antibody cL0125 (antibody, V domains shown)
VH: VKLQESGGGLVKPGGSLKLSCAASGFTFSSYAMSWVRQSPEKRLEWVAEISSDGFYTYYPDTVTGRFTISRDNAKNTLYLEMSSLRSEDTAMYYCARDGNYVDYAMDYWGQGTSVTVSS
VL: B1 VL with R18K, Q43A, L48W, D71S, L79V
notes: Chimeric antibody made from the murine L0125 VL and VH
EC50 (read off the curve) [2]: ~10 nM

B3: bispecific antibody 3scFv×hL0125C (bispecific antibody)
heavy: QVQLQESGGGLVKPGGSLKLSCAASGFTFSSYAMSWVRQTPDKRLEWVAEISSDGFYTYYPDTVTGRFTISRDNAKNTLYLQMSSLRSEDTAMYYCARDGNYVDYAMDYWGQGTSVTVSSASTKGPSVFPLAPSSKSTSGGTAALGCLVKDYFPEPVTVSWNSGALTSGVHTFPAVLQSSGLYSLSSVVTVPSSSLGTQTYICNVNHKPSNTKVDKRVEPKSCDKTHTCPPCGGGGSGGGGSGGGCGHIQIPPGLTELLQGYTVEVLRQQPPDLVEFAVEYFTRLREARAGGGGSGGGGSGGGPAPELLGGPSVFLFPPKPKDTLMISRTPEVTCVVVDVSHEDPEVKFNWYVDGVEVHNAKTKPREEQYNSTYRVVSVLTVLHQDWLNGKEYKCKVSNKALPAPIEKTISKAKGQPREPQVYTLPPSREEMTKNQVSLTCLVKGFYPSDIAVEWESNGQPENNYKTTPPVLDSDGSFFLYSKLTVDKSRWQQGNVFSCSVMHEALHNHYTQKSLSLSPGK
light: DIQLTQSPAIMSASPGERVTMTCRASSSVSSSYLHWYQQRSGQSPKLLIYSTSNLASGVPARFSGSGSGTDYSLTISSLEAEDAATYYCQQYSGSPLTFGSGTKLEIKRTVAAPSVFIFPPSDEQLKSGTASVVCLLNNFYPREAKVQWKVDNALQSGNSQESVTEQDSKDSTYSLSSTLTLSKADYEKHKVYACEVTHQGLSSPVTKSFNRGEC
scFv: not shown
modifications: The AD2 of the scFv is docked on the DDD2 dimer and locked by disulfide bonds; the complex holds 2 heavy chains, 2 light chains and 1 scFv.
notes: hL0125 IgG with DDD2 inserted in the hinge of each heavy chain; The DDD2 dimer docks the AD2 of one anti-CD3 scFv (3scFv), giving a 2+1 format assembled intracellularly; also called Construct C; Format C
EC50 (read off the curve) [1]: ~10 nM
IC50, 60-hour MTS viability assay, BT-474 cells with human PBMCs (10:1) [4]: ~0.02 nM
IC50, 60-hour MTS viability assay, HCT116 cells with human PBMCs (10:1) [4]: ~0.018 nM
IC50, 60-hour MTS viability assay, MDA-MB-231 cells with human PBMCs (10:1) [4]: ~0.013 nM
IC50, 60-hour MTS viability assay, MDA-MB-468 cells with human PBMCs (10:1) [4]: ~6 pM
